Patent US7271143B1, “Peptides for regulation of urokinase (uPA) and tissue type (tPA) plasminogen activator and method of optimizing therapeutic efficacy” (Thrombotech Ltd., priority 2001, dated 2007)
Like-named read-outs stand apart in the source and are kept apart here. Ends that are not written are not given here.

Columns and labels:
isolated rat aorta rings = test: PE-induced contraction of isolated rat aorta rings; type: cell-based
Method: FIG. 1A is a diagram describing the results of experiments on the effect of tPA on PE-induced contraction of isolated rat aorta rings. Contraction of aortic rings was induced by increasing the concentrations of phenylephrine (PE), in the absence of tPA (full triangles) or in the presence of 1 nM (filled squares) or 20 nM tPA (empty squares).
FIG. 1B describes the results of experiments in which the contraction of aortic rings was induced in the absence of TNK-tPA (filled triangles), in the presence of 1 nM tPA (filled squares) or 20 nM tPA (empty squares).
FIG. 4 is a graph describing the effect of tPA on phenylepbrine-induced contraction of isolated rat aorta rings in vitro. The contraction of the aorta rings was induced by varying concentrations of phenylephrine in the absence of tPA (filled triangles), in the presence of 1 nM of TA (filled squares) or in the presence of 10 nM tPA (empty squares). The experiments were performed according to procedures described earlier by Haj-Yehia A et al., FASEB J, 2000, 14:1411–1422.
(§1) The effect of TNK-tPA on PE-induced contraction was compared with the effect of tPA, in the isolated aorta rings. The experimental procedure followed has been described earlier (Haj-Yehia A, Nassar T, Sachais B, Kuo A, Bdeir K., Al-Mehdi A-B, Mazar A, Cines D, Higazi A A-R. Urokinase-derived peptides regulate vascular smooth muscle contraction in vitro and in vivo. FASEB J 2000; 14:1411–1422.
FIG. 4 describes a graph describing the effect of TA on phenylephrine-induced contraction of isolated rat aorta rings in vitro. The contraction of the aorta rings was induced by varying concentrations of phenylephrine in the absence of tPA (filled triangles), in the presence of 1 nM of tPA (filled squares) or in the presence of 10 nM TA (empty squares). The experiments were performed according to procedures described earlier by Haj-Yehia A et al., FASEB J, 2000, 14:1411–1422.

TNK-tPA = TNK-tPA (Homo sapiens, UniProt P00750, H332A/K331A/N152Q/R333A/R334A/T138N); test: Effect on vasoactivity of TNK-tPA (PE-induced contraction of aorta rings); type: cell-based
Chain of TNK-tPA (P00750 36-562 T138N/N152Q/K331A/H332A/R333A/R334A): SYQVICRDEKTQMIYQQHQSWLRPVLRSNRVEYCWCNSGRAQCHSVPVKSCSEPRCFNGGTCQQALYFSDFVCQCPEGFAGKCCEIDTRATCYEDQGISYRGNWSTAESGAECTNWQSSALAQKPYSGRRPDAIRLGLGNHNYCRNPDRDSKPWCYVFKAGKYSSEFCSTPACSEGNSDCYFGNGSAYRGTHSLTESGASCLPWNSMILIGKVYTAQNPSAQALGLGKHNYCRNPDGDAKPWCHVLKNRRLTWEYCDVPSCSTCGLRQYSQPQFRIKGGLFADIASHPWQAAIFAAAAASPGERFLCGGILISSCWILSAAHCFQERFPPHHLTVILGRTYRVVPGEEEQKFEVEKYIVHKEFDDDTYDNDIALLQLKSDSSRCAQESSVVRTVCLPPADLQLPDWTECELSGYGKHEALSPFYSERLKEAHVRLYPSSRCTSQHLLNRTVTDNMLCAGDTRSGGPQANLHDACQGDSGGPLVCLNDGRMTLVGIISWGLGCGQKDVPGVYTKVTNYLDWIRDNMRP
Method: (§2) FIG. 2 is a graphical representation of the results obtained in experiments to study the effect of PAI-1 on the vasoactivity of tPA. The EC50 of PE was determined in the absence (Control) or presence of 1 nM tPA, 20 nM tPA, 1 nM tPA and an equimolar concentration of PAI-1, 20 nM tPA and an equimolar concentration of PAI-1, 1 nM tPA and 2 μM of SEQ ID NO:1 or 20 nM tPA and 2 μM of SEQ ID NO:1.
The effect of TNK-tPA on PE-induced contraction was compared with the effect of tPA, in the isolated aorta rings.
PAI-1 interacts with tPA through independent sites; the catalytic site and a docking site, present in the amino acids […] to 299. The PAI-1 docking site is mutated in TNK-tPA. […] Madison E L, Goldsmith W. Gething M-J, H., Sambrook J F, Gerard R D. Restoration of serine protease-inhibitor interaction by protein engineering. Journal of Biological Chemistry. 1990; 265:21423–21426.
(§3) The effect of revertase and TNK-tPA on the PE induced vasocontraction was studied in presence or absence of the LRP antagonist (RAP) or anti LRP antibodies.

uPA [1] = molecular target: T1, uPA (Homo sapiens, UniProt P00749); test: Effect on vasoactivity of uPA (PE-induced contraction of aorta rings); type: cell-based
Method: FIG. 5 is a bar diagram describing the results of experiments on the vasoactivity of uPA and tPA in the presence or absence of PAI-1, for example, the effect of 2 nM uPA or 1 nM tPA on phenylephrine induced vasoconstriction was determined in the presence or absence of equimolar concentrations of PAI-1.
FIG. 5 describes a bar diagram describing the results of experiments on the vasoactivity of uPA and tPA in the presence of absence of PAI-1, for example, the effect of 2 nM uPA or 1 nM tPA on phenylephrine induced vasoconstriction was determined in the presence or absence of equimolar concentrations of PAI-1.
(§4) FIG. 6 is a bar diagram describing the results of studies done on the effect of PAI-1 derived peptide on tPA vasoactivity. The constriction of aorta rings was induced by increasing the concentrations of phenylephrine in the absence or presence of 1 nM tPA, 1 nM tPA and 1 OM, 10 nM tPA or 10 nM tPA and 1 OM.

uPA [2] = molecular target: T1, uPA; test: Effect on fibrinolytic activity of uPA; type: biochemical
tPA [3] = molecular target: T2, tPA (Homo sapiens, UniProt P00750); test: Effect on vasoactivity of tPA (PE-induced contraction of aorta rings); type: cell-based
T2 sequence (P00750 36-562): as the sequence (P00750 36-562 T138N/N152Q/K331A/H332A/R333A/R334A) above, with N103T, Q117N, A296K, A297H, A298R, A299R counted along it
Method: as §2
as §2, with “FIG. 3 is a” for “FIG. 2 is a”, “effect of RAP and anti-LRP antibodies on the” for “effect of PAI-1 on the”
FIG. 6 is a bar diagram describing the results of studies done on the effect of PAI-1 derived peptide on tPA vasoactivity. The constriction of aorta rings was induced by increasing the concentrations of phenylepbrine in the absence or presence of 1 nM tPA, 1 nM tPA and 1 OM SEQ ID NO:[…] tPA or 10 nM tPA and 1 OM of SEQ ID NO:1.
as §1
In an attempt to understand the basis for the modification in the vasoactivity of TNK-tPA, the role of the PAI-1 docking site in the process was examined.
as §3, §4

scuPA = scuPA (Homo sapiens, UniProt P00749); test: Effect on fibrinolytic activity of scuPA (blood clot lysis); type: biochemical
tPA [4] = molecular target: T2, tPA; test: tPA mediated clot lysis / chromogenic assay of tPA activity; type: biochemical
Method: (§5) FIG. 7 is a bar diagram describing the results of experiments on the effect of PAI-1 derived peptide on tPA mediated clot lysis. The capacity of TA to induce clot lysis was determined in the presence and absence of 1 OM of SEQ ID NO:1. In these experiments, blood from volunteers was allowed to clot at room temperature for one hour, the blood clot was separated from the plasma, placed on absorbing paper to remove all the serum and cut into several pieces. The pieces were weighed, and placed in PBS buffer alone or containing 100 nM tPA, with or without 1 OM of SEQ ID NO:1. After incubation for 3 hours at room temperature, the thrombi are separated from the medium, dried and weighed.
as §5, with “of tPA” for “of TA”, “of 10 M.” for “of 1 OM of SEQ ID NO:1.”, “without 10M.” for “without 1 OM of SEQ ID NO:1.”, “weighed. […]” for “weighed.”

[5] = in vivo; cited from earlier work
[6] = in vivo; cited from earlier work; remark: listed apart in the source

Q: Which EC50 (isolated rat aorta rings; Rattus norvegicus, control, before addition of plasminogen activator, read-out: EC50 of PE-induced constriction) does the source give for `CNC[C@H](O)c1cccc(O)c1` [PE, phenylephrine, reference compound] here?
A: The EC50 was 34 nM.

Q: Which “effect on vasoactive effect of TNK-tPA” value (TNK-tPA; 2 μM peptide) does the source give for “EEIIMD [SEQ ID NO:1, six amino acid peptide corresponding to residues 350 to 355 of PAI-1]” here?
A: Its value is “unaffected”.

Q: And the “effect on vasoactive effect of TNK-tPA” value (TNK-tPA; 10 μM peptide)?
A: The value was “abolished”.

Q: And the “effect on vasoactive effect of TNK-tPA” value (TNK-tPA; 5 molar concentration of the peptide)?
A: The value was “abolished”.

Q: What about the “effect on vasoactive effect of TNK-tPA” value (TNK-tPA; equimolar concentration of peptide) of the same compound?
A: The value was “unaffected”.

Q: And the “effect on enhancing effect of uPA on phenylephrine-induced vasoconstriction” value (uPA [1]; concentration not given)?
A: Its value is “abrogates”.

Q: What about the “effect on enhancing effect of uPA on phenylephrine induced vasoconstriction” value (uPA [1]; same as on tPA, peptide at 10M (so in the source)) of the same compound?
A: The value was “the same effect”.

Q: What about the “effect on fibrinolytic activity of uPA” value (uPA [2]) of the same compound?
A: Its value is “no effect”.

Q: What about the “effect on vasoactive effects of rtPA” value (tPA [3]; 2 μM peptide) of the same compound?
A: Its value is “abolished”.

Q: And the “effect on enhancing effect of tPA on phenylephrine-induced vasoconstriction in aorta ring cultures” value (tPA [3]; concentration not given)?
A: Its value is “abolishes”.

Q: And the “effect on enhancing effect of tPA on phenylephrine induced vasoconstriction” value (tPA [3]; peptide at 10M (so in the source))?
A: Its value is “abolished”.

Q: What about the “effect alone on contraction of aorta rings” value (isolated rat aorta rings; without tPA or uPA) of the same compound?
A: Its value is “Neither PAI-1 nor alone had any effect”.

Q: What about the “effect on fibrinolytic activity of scuPA” value (scuPA) of the same compound?
A: The value was “no effect”.

Q: And the “effect on fibrinolytic activity of scuPA” value (scuPA; listed as 6 amino acid peptide)?
A: The value was “stimulates synergistically”.

Q: What about the “effect on fibrinolytic activity of tPA” value (tPA [4]) of the same compound?
A: The value was “no effect”.

Q: And the “effect on catalytic activity of tPA (clot lysis, FIG. 7)” value (tPA [4]; 100 nM tPA, peptide 10M (so in the source), 3 hours, room temperature)?
A: Its value is “no significant effect”.

Q: With “rRAP: LRP antagonist, recombinant receptor associated protein [reference compound]” as the compound, how does the “effect on vasoactive effect of TNK-tPA” value (TNK-tPA; anti-LRP antibodies or LRP antagonist) read?
A: The value was “totally abolished”.

Q: What about the “effect on vasoactive effect of tPA” value (tPA [3]) of the same compound?
A: Its value is “totally abolished”.

Q: With “tPA: tissue-type plasminogen activator, single-chain serine protease; rtPA is the recombinant form” as the compound, how does the “incidence of subsequent symptomatic intracerebral hemorrhage” value [5] read?
A: The value was “approximately six”.

Q: And the “patients with symptomatic intracerebral hemorrhage who die” value [5]?
A: Its value is “approximately fifty”.

Q: What about the non-cerebral bleeding episodes [6] of the same compound?
A: The non-cerebral bleeding episodes was 5.94%.

Q: What about the “affinity of first (fast) epitope, inhibits PE induced vasoconstriction” value (isolated rat aorta rings) of the same compound?
A: The value was “around 1 nM”.

Q: And the “affinity of second epitope, stimulates PE-induced vasoconstriction” value (isolated rat aorta rings)?
A: Its value is “around 20 nM”.

Q: And the “effect on PE-induced vasoconstriction” value (isolated rat aorta rings; 1 nM)?
A: The value was “inhibited”.

Q: What about the “effect on PE-induced vasoconstriction” value (isolated rat aorta rings; 1 nM, listed as TA) of the same compound?
A: Its value is “inhibits”.

Q: What about the “effect on PE-induced vasoconstriction” value (isolated rat aorta rings; 20 nM) of the same compound?
A: The value was “stimulated”.

Q: What about the “capacity to induce vasodilatation” value (isolated rat aorta rings; FIG. 4) of the same compound?
A: The value was “has the capacity to induce vasodilatation”.

Q: What about the “effect on phenylephrine-induced vasoconstriction” value (isolated rat aorta rings; increased tPA concentrations (printed 1 nM; FIG. 4 uses 10 nM)) of the same compound?
A: The value was “stimulated”.
